# T1: ENTPD2 (Homo sapiens, UniProt Q9Y5L3)
# T1 sequence (Q9Y5L3 1-495): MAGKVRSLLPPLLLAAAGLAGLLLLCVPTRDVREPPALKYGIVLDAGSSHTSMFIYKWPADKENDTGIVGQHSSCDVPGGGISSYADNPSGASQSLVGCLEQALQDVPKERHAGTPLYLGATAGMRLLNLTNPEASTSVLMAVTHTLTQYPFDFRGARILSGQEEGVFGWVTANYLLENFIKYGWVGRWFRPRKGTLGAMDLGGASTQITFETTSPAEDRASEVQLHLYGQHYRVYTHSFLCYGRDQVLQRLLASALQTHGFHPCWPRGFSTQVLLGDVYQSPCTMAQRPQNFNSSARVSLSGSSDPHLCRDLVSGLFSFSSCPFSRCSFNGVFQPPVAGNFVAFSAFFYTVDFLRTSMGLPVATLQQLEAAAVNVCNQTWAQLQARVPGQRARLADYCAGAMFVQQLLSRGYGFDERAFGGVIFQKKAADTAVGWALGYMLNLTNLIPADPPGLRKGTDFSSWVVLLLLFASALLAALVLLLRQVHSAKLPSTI
# T2: recombinant human ENTPD2 (residues 29-462) (Homo sapiens, UniProt Q9Y5L3)
# T2 construct: residues 29-462 of human or cyno ENTPD2 were cloned into expression vector; GP67 signal peptide (N); made in house; host or cells: High Five (Trichoplusia ni) insect cells, baculovirus
# T2 sequence (Q9Y5L3 29-462): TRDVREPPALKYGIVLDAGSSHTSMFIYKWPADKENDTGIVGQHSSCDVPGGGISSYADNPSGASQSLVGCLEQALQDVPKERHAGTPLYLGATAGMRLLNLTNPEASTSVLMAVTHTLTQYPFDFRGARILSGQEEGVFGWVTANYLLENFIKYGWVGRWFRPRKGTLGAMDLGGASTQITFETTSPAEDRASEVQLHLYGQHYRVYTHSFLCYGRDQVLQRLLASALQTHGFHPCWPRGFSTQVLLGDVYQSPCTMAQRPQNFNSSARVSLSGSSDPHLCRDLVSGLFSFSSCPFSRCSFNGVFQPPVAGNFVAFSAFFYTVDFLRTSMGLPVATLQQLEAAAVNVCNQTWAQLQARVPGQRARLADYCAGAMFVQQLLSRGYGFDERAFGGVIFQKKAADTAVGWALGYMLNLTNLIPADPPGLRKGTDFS
# B1: mAb17: hybridoma-derived lead inhibitory anti-human ENTPD2 mAb (antibody, V domains shown)
# VH: EVQLQQFGAELVKPGASVKISCKASGYTFTDYNMDWVKQSHGKSLEWIGDINPKYDISTYNQQFKGKATLTVDKSSSTAYMELRSLTSEDTAVYYCARRGFFLYYGINYYYFDVWGAGTTVTVSS
# VL: QIVLTQSPAIMSASLGEEITLTCSASSSVSYIHWYQQKSGTSPTLLIYSTSNLASGVPSRFSGSGSGTFYSLTISSVEAEDAADYYCHQWSSYPWTFGGGTKLEIK
# Legend:
# [1] = system: human ENTPD2 engineered B16LM3 clone B5 tumor; test: Human ENTPD2 engineered B16LM3 clone B5 xenograft model, combination with A2AR antagonist NIR178; assay type: in vivo; conditions: NIR178 p.o. 4 days on and 3 days off at either 50 or 200 mg/kg with isotype control 10 mg/kg
# Procedure: Human ENTPD2-engineered B16LM3 clone B5 was established in female C57BL/6 mice by subcutaneous injection of 0.5×10^6 cells into the right flank of each mouse. Once tumors reached approximately 50 mm^3, mice were randomized according to tumor volume into treatment groups (n=8 per group). Mice received an intravenous (i.v.) treatment of either anti-ENTPD2 mAb1 at a final dose of 10/mg/kg or a non-specific human IgG1 isotype control 10 mg/kg on day 1 of study. NIR178 was administered per os (p.o.) for 4 days on and 3 days off, starting at the beginning of study at either 50 mg/kg or 200 mg/kg. All doses were adjusted to individual mouse body weights. The study was carried out for thirteen days post treatment initiation and tumor volumes were assessed every other day to assess efficacy.
# [2] = target: T1, ENTPD2; test: Hybridoma mAb screen, cell-based assay for inhibition of ATP hydrolysis by ENTPD2; conditions: hybridoma-derived mAbs
# Text: Hybridoma-derived mAbs were screened in a cell-based assay for inhibition of ATP hydrolysis by ENTPD2.
# [3] = target: T2, recombinant human ENTPD2 (residues 29-462); test: Biochemical human ENTPD2 functional assay (Transcreener ADP2 TR-FRET); conditions: FIG. 15
# Text: Biochemical and cell-based functional assays were developed in-house to understand functional impact of anti-ENTPD2 Abs against purified extracellular domain of ENTPD2 (residues 29-462), as well as against the fully intact protein in the context of the native cell-based conformation. ENTPD2 hydrolyzes ATP to ADP, which can subsequently be detected using the HTRF Transcreener ADP2 TR-FRET Red Assay (BellBrook Labs, Madison, WI) where ENTPD2-produced ADP would compete with the ADP Tracer for binding to the anti-ADP-Tb antibody. The resulting signal is inversely proportional to the concentration of ADP in the sample. […]
# HTRF signal (Emission at 620 nm and 665 nm) was assessed in both assays using the Envision plate reader in HTRF mode (Perkin Elmer, Waltham, MA). HTRF ratio was determined using the following formula: HTRF ratio=R=Emission at 665 nm/Emission at 620 nm×10,000. Subsequently % Residual Activity and % Inhibition were determined as follows:
# Where R0% is the HTRF ratio of the negative control (0% enzyme activity), and R100% is the HTRF ratio of the positive control (100% enzyme activity). Data were analyzed in Microsoft Excel and graphed using GraphPad's Prism 7.0 software and IC50 values were obtained using non-linear regression, log (agonist) vs. response-variable slope (four parameters) analysis.
Molecule,"anti-tumor efficacy, non-specific isotype control and NIR178 [1]",inhibition of ATP hydrolysis by ENTPD2 (screen outcome) [2],inhibition of the catalytic activity of the recombinant human ENTPD2 [3]
"Nc1nc(-n2cccn2)nc(-n2cccn2)c1Br [NIR178, 5-bromo-2,6-di-(1H-pyrazol-1-yl)pyrimidine-4-amine]",No significant anti-tumor efficacy,,
B1,,lead inhibitory,potently inhibit

# — patent US11939397B2, “ENTPD2 antibodies, combination therapies, and methods of using the antibodies and combination therapies” (Novartis AG, priority 2018, dated 2024)
